# Data: patent US20100062512A1 (CRUCELL HOLLAND B V, published 2010)
# Target: T1, Factor XI from DEAE treated human plasma (human, UniProt P03951 19-625)
# T1 construct: mature; Plasma-derived, not purified when it was loaded on the Protein G column; also called FXI
# Test: Protein G column chromatography of 25 ml DEAE treated human plasma
# Description: Therefore, 25 ml DEAE treated human plasma was subjected to a 1 ml Protein G column, to which IgG's selectively bound while more than 99% of the loaded Factor XI appeared in the flowthrough. Thus, a biological fluid containing Factor XI and depleted of IgG's was obtained.
# T1 sequence (P03951 19-625 limits assumed): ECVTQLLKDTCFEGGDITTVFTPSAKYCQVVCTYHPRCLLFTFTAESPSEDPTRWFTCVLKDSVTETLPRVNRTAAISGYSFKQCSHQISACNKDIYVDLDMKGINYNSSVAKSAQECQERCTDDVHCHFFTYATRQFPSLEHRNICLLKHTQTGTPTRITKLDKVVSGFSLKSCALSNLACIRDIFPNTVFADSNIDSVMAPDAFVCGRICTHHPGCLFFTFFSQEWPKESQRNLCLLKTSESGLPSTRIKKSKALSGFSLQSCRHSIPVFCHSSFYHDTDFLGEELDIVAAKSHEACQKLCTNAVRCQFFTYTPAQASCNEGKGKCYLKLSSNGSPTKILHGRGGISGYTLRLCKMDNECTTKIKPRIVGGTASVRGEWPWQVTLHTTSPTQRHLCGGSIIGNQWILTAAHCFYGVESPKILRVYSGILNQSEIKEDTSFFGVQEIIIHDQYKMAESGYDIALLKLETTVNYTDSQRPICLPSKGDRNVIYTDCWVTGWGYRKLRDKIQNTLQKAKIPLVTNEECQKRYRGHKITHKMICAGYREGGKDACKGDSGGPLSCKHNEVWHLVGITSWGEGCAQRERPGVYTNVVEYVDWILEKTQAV
binder,measurement,value
"Protein G (1 ml Protein G column) (other, UniProt P19909 303-497, looked up, Immobilised Protein G) TYKLILNGKTLKGETTTEAVDAATAEKVFKQYANDNGVDGEWTYDDATKTFTVTEKPEVIDASELTPAVTTYKLVINGKTLKGETTTEAVDAATAEKVFKQYANDNGVDGEWTYDDATKTFTVTEKPEVIDASELTPAVTTYKLVINGKTLKGETTTKAVDAETAEKAFKQYANDNGVDGVWTYDDATKTFTVTE",binding result,no binding (tested: more than 99% in flowthrough)
